In PMC5724578 (Biochemistry, 2017) one finds Kd data, which are given here for one molecule.

In the assay the target is VASP EVH1 domain (wild type) (human, UniProt P50552 2-115). In words: NMR titration.

B1: Zyxin proline rich region, residues 41-140 (domain or fragment, human, UniProt Q15942 41-140, looked up)
chain: PGDSEPPPAPGAQRAQMGRVGEIPPPPPEDFPLPPPPLAGDGDDAEGALGGAFPPPPPPIEESFPPAPLEEEIFPSPPPPPEEEGGPEAPIPPPPQPREK
B1: binding was put at a Kd of 32.2 ± 1.7 µM.
